According to US20220195015A1:

Biological target: SARS-CoV-2 spike (S) protein on pseudotyped HIV-1 reporter virus (SARS-CoV-2) (UniProt P0DTC2)
Experiment: cell-based or functional assay

Sequence of C144 (antibody) (VH): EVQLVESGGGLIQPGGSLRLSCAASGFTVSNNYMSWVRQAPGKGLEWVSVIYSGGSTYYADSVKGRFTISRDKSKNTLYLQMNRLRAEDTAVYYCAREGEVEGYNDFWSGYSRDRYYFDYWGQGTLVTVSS
Sequence of C144 (antibody) (VL): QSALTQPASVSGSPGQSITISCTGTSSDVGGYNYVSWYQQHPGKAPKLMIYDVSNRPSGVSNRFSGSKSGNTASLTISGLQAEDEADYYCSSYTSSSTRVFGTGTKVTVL

C144 (antibody) showed an IC50 of 0.00286 µg/mL and an IC90 of 0.0405 µg/mL.
